B1: Focal adhesion kinase 1 (Rattus norvegicus (Rat)), O35346 (parent)
chain: MAAAYLDPNLNHTPSSSTKTHLGTGTERSPGAMERVLKVFHYFESSNEPTTWASIIRHGDATDVRGIIQKIVDSHKVKHVACYGFRLSHLRSEEVHWLHVDMGVSSVREKYELAHPPEEWKYELRIRYLPKGFLNQFTEDKPTLNFFYQQVKSDYMLEIADQVDQDIALKLGCLEIRRSYWEMRGNALEKKSNYEVLEKDVGLKRFFPKSLLDSVKAKTLRKLIQQTFRQFANLNREESILKFFEILSPVYRFDKECFKCALGSSWIISVELAIGPEEGISYLTDKGCNPTHLADFNQVQTIQYSNSEDKDRKGMLQLKIAGAPEPLTVTAPSLTIAENMADLIDGYCRLVNGATQSFIIRPQKEGERALPSIPKLANNEKQGMRTHAVSVSETDDYAEIIDEEDTYTMPSTRDYEIQRERIELGRCIGEGQFGDVHQGVYLSPENPALAVAIKTCKNCTSDSVREKFLQEALTMRQFDHPHIVKLIGVITENPVWIIMELCTLGELRSFLQVRKYSLDLASLILYAYQLSTALAYLESKRFVHRDIAARNVLVSSNDCVKLGDFGLSRYMEDSTYYKASKGKLPIKWMAPESINFRRFTSASDVWMFGVCMWEILMHGVKPFQGVKNNDVIGRIENGERLPMPPNCPPTLYSLMTKCWAYDPSRRPRFTELKAQLSTILEEEKVQQEERMRMESRRQATVSWDSGGSDEAPPKPSRPGYPSPRSSEGFYPSPQHMVQTNHYQISGYPGSHGIPAMAGSIYPGQASLLDQTELWNHRPQEMSMWQPSVEDSAALDLRGMGQVLPPHLMEERLIRQQQEMEEDQRWLEKEERFLKPDVRLSRGSIDREDGSFQGPTGNQHIYQPVGKPDPAAPPKKPPRPGAPGHLSNLSSISSPAESYNEGVKPWRLQPQEISPPPTANLDRSNDKVYENVTGLVKAVIEMSSKIQPAPPEEYVPMVKEVGLALRTLLATVDETIPILPASTHREIEMAQKLLNSDLGELISKMKLAQQYVMTSLQQEYKKQMLTAAHALAVDAKNLLDVIDQARLKMLGQTRPH

Variants of: B1
Settings: with paxi_mouse Pxn

Row | Variant | effect of a mutation on the interaction
1 | W266A | disrupting interaction

From IntAct's records for PubMed 24480479
